Data published in patent US11787850B2, “Peptidic TGF-beta antagonists” (priority 2015, dated 2023).

Experiments:
[1] = Aggregation assay: Microcon 100 kDa filtration, Tricine SDS-PAGE, silver staining; assay type: physicochemical; conditions: for aggregation state (aggregated versus soluble fraction): 50 mM Tris-HCl pH 7.0, 2 hrs at 4° C., 100 kDa cut-off; for effect of DMSO treatment on aggregation: 0.5% DMSO for 2 hrs at 4° C.
Procedure: Peptide X (X, 40 amino acids) and P16 (16 amino acids) were left untreated (−) or treated with 0.5% DMSO (+) for 2 hrs at 4° C. The aggregated and non-aggregated soluble fractions were then separated using a Microcon™ centrifugal filtration device (Millipore), with a molecular weight cut-off of 100 kDa. This device allows passage of molecules <100 kDa through the filter but retains larger molecules (aggregates). The aggregated (FIG. 1A—left panel) and soluble (FIG. 1B—right panel) fractions were then separated by 17% Tricine-SDS gel electrophoresis and peptides detected by silver staining. In the conditions tested, multiple bands with various staining intensities were detected in peptide X aggregated fraction and two of these bands were decreased with DMSO treatment (A—left panel, arrows) leading to an increase in the amount of soluble peptide X (B—right panel, arrow, lane 2 versus 3). […] (A-B) Lane 1: Molecular weight marker. Lanes 2-5: samples.
Aggregation assay. Soluble peptides were separated from aggregates and precipitates by filtration. The molecular weight cut-off of the filter was chosen such that soluble protein was allowed to pass through the filter, while aggregate forms were retained. Peptide X and P16 previously dissolved in 50 mM Tris-HCl (pH=7.0) were left untreated or treated with 0.5% dimethyl sulfoxide (DMSO) for 2 hours at 4° C. Soluble protein was then separated from aggregated protein using a Microcon™ concentrator (Millipore), with a molecular weight cut-off of 100 kDa. The Microcon was spun in a desktop centrifuge at 16,000×g for 15 min. Aggregated protein retained on the membrane was resuspended in H2O, pipetting repeatedly across the membrane to ensure that as much protein as possible was removed. Aliquots of soluble protein and aggregated protein were each mixed with 5× sample buffer (250 mM Tris-HCl, 40% glycerol, 140 mM SDS, 0.6 M β-mercaptoethanol, pH 6.8) and heated to 85-90° C. for 10 min prior to Tricine SDS-PAGE. Samples were analyzed by 17% Tricine SDS-PAGE and peptides visualized by silver staining. Aggrescan Analysis
Peptide X (X, 40 amino acids) and P16 (16 amino acids) were left untreated (−) or treated with 0.5% DMSO (+) for 2 hrs at 4° C. The aggregated and non-aggregated (soluble) fractions were then separated using a Microcon centrifugal filtration device (Millipore), with a molecular weight cut-off of 100 kDa. This device allows passage of molecules less than 100 kDa through the filter but retains larger molecules (aggregates). The aggregated and soluble fractions were then separated by 17% Tricine-SDS gel electrophoresis and peptides visualized by silver staining.

[2] = tested on: TGF-β1-induced Smad3-driven (CAGA12-lux) transcriptional activity; experiment: Luciferase reporter assay in HEK293-(CAGA)12 cells; assay type: cell-based; conditions: 100 pM TGF-β1, 18 hours; for inhibition of TGF-β1-induced CAGA12-lux activity, peptide pre-treated with DMSO: 0.5% DMSO pre-treatment (FIG. 8); for inhibition of TGF-β1-induced CAGA12-lux activity, peptide in Tris buffer left untreated: no DMSO (FIG. 8)
Procedure: FIGS. 5A and 5B illustrate that some small molecular weight CD109-based peptides (Peptide A, P28, P21 and […]) inhibit TGF-β1-induced Smad3-driven transcriptional activity. […] Cell lysates were analyzed for luciferase activity and data are expressed as mean±standard deviation of relative light units (RLU). […] Under the conditions tested, peptide A, P28, P21 and P16 inhibited TGF-β1-induced transcriptional (CAGA12-lux) activity.
FIG. 6 illustrates that the small molecular weight CD109-based peptide P16 (but not P16-2, P11 or X-4) inhibit TGF-β1-induced Smad3-driven transcriptional activity. HEK293 cells stably transfected with the Smad3-responsive CAGA12-lux luciferase reporter were treated for 18 hours without (−) or with (+) […] TGF-β1 in the presence or absence of 10 nM of P16-2 (16 aa scrambled control), P11 (11 aa sequence), P16 (16 aa), X-4 (11 aa) or Tris-buffer (buffer control) as indicated. Cell lysates were analyzed for luciferase activity and data are expressed as mean±standard deviation of luciferase activity. Results are shown as luciferase activity for the peptides used.
FIG. 8 illustrates that DMSO treatment enhances the TGF-β inhibitory activity of Peptide X but not P21 or P16. HEK293 cells stably transfected with the Smad3-responsive CAGA12-lux luciferase reporter were treated for 18 hours without (−) or with (+) 100 pM TGF-β1 in the presence or absence of Peptide X (PX), P21 or P16. The peptides were previously dissolved in Tris buffer and left untreated or treated with DMSO prior to addition to the cells. Addition of Tris buffer or DMSO alone served as additional controls. Cell lysates were analyzed for luciferase activity and data are expressed as mean±standard deviation of luciferase activity. Results are shown as luciferase activity. […] P16 and P21 inhibited TGF-β1-induced CAGA12-lux activity and these effects were not enhanced by DMSO treatment. […]
FIG. 25 is a graph showing the ability of CD109-based peptides to inhibit TGF-β-induced, Smad3-driven transcriptional activity. HEK293 cells stably transfected with the Smad3-responsive CAGA12-lux luciferase reporter were treated for 18 hours without (−) or with (+) 100 pM TGF-b1 in the presence or absence of 10 nM of P16, P16.2, peptide A, P15, P14, P13, P12, P11, peptide X, P21, or 2% NH4OH buffer (buffer control) as indicated. Cell lysates were analyzed for luciferase activity and data are expressed as mean±standard deviation of luciferase activity.
HEK293 cells stably transfected with the Smad3-responsive CAGA12-lux luciferase reporter construct were incubated with dimeric or monomeric forms of peptide A as indicated and treated with 100 pM TGF-b overnight. Cell lysates were analyzed for luciferase activity. Data are presented as fold-activation compared to TGF-b1 treatment alone (scaled to 1.0). M+D, mixture of monomer and dimer.
Luciferase reporter assays were performed using a HEK293-(CAGA)12 cell line that stably expresses a TGF-β/Smad3-responsive (CAGA)12-luciferase reporter gene [Cash et al. 2013]. HEK293-(CAGA)12 cells were grown in 24-well plates to 70-80% confluency and serum-starved overnight. Cells were washed with PBS and treated with or without TGF-β1 in presence or absence of various CD109-based peptides as indicated in the figure legends. Cells were then washed twice with cold PBS and solubilized in 100 μl of Passive Lysis Buffer (Promega) for 30 min at 4° C. The cell lysates were assayed for luciferase and β-galactosidase activities using commercially available kits (BD Biosciences).
HEK293 cells stably transfected with the Smad3-responsive CAGA12-lux luciferase reporter were treated for 18 hours without (−) or with (+) 100 pM TGF-β1 in the presence or absence of 10 nM (FIG. 5A) or 5 nM (FIG. 5B) of peptide A (Pep A, 161 aa), P28 (28 aa peptide), P21 (21 aa peptide), P16 (16 aa peptide), P16.2 scrambled peptide (16 aa, scrambled P16 sequence) or Tris-buffer (negative control for peptides) as indicated. […]

Row | Sequence | aggregation state (aggregated versus soluble fraction) [1] | effect of DMSO treatment on aggregation [1] | inhibition of TGF-β1-induced CAGA12-lux activity, peptide pre-treated with DMSO [2] | inhibition of TGF-β1-induced CAGA12-lux activity, peptide in Tris buffer left untreated [2]
1 | ETWIWLDTNMGSRIYQ [Peptide P16] | aggregated only to a minor extent | not altered by DMSO treatment | not enhanced | inhibited
2 | LGSSPHVRKHFPETWIWLDTNMGSRIYQEFEVTVPDSITS (Peptide X) | existed predominantly in aggregated form | partially decreased | inhibited | did not
